In publication PMC2731889:

Target: ArdA protein from the conjugative transposon Tn916 (Enterococcus faecalis)
Test: crystal structure

## ArdA protein from the conjugative transposon Tn916 (natural protein)
  stoichiometry N: 2
